Experimental findings from US5622828, “High-affinity oligonucleotide ligands to secretory phospholipase A2 (sPLA2)” (Nexstar Pharmaceuticals, Inc.) are described below.

The target of data set [1] is T1, secretory phospholipase A2 (sPLA2) (Homo sapiens, UniProt P14555 P14555:21-144).
T1 sequence: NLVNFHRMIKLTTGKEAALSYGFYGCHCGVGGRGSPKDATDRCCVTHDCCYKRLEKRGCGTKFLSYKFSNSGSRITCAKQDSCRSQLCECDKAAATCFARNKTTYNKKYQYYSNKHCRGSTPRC
Nature of the data set: filter; monophasic; TBSC, 37 C. The conditions noted are these: tags: supplied by Eli Lilly; hairpin with asymmetric internal loop. How it is done:
(§1) The nitrocellulose filter partitioning method was used as described in SELEX Patent Applications to determine the affinity of RNA ligands for sPLA_2 and for other promins. Filter discs (nitrocellulose/cellulose acetate mixed matrix, 0.45 µm pore size, Millipore) were placed on a vacuum manifold and washed with 5 ml of TBSC buffer under vacuum. Reaction mixtures, containing ^32P labeled RNA pools and sPLA_2, were incubated in TBSC for 5 minutes at 37° C., filtered, and then immediately washed with 5 ml TBSC. The filters were air-dried and counted in a Beckman liquid scintillation counter without fluor.
(§2) The dissociation constants for representative members of families I–VI, orphan and other ligands were determined by nitrocellulose filter binding experiments and are listed in Table III. Unlike random RNA, all tested ligands from the 2'OH SELEXes bound biphasically.

In data set [2] the target is T1, secretory phospholipase A2 (sPLA2). Nature of the data set: filter; biphasic, Kd2 82 nM, mole fraction 0.60; TBSC with 5 mM CaCl2, 37 C. The conditions noted are these: tags: supplied by Eli Lilly. How it is done:
as §1, §2

Data set [3] has the same target. Nature of the data set: filter; biphasic, Kd2 1830 nM, mole fraction 0.50; TBSC, 37 C. The conditions noted are these: tags: supplied by Eli Lilly. How it is done: as §1, §2
For data set [4] the target is unchanged. Nature of the data set: filter; biphasic, Kd2 450 nM, mole fraction 0.35; TBSC, 37 C. Conditions: tags: supplied by Eli Lilly. As for the experimental part: as §1, §2
For data set [5] the target is unchanged. Put plainly: filter; biphasic, Kd2 170 nM, mole fraction 0.30; TBSC, 37 C. Conditions: tags: supplied by Eli Lilly. As for the experimental part: as §1, §2
The target is the same in data set [6]. Nature of the data set: filter; biphasic, Kd2 110 nM, mole fraction 0.40; TBSC, 37 C. The conditions noted are these: tags: supplied by Eli Lilly. As for the experimental part:
as §1, §2

Data set [7] concerns the target pancreatic phospholipase A2 (bpPLA2) (Bos taurus, UniProt P00593 P00593:23-145). Nature of the data set: filter; specificity control, like random RNA; TBSC. How it is done: (§3) The affinity of sPLA_2 ligands 2, 72, 80, 87, NN19 and NN19.15 (SEQ ID NOs.:11, 20, 53, 54, 64, and 117, respectively) for proteins other than sPLA_2 was determined by nitrocellulose partitioning (Tables IV and V). Like sPLA_2, hen egg white lysozyme, bFGF and elastase are small, highly cationic proteins. Bovine pancreatic PLA_2 is an evolutionarily and structurally related enzyme. […] Specificity is particularly well illustrated by the affinities for bovine pancreatic PLA_2 which is 10^4-fold less than that for human sPLA_2.
(§4) *Standard binding experiments were performed to the specified target protein in TBSC and K_d's is calculated by curve fitting. The ligands bind no better than randomized RNA (30N1) to lysozyme (hen egg-white), human basic fibroblast growth factor basic (bFGF) and bovine pancreatic PLA₂. The sPLA₂ K_d that of the high affinity species.

The target of data set [8] is basic fibroblast growth factor (bFGF) (Homo sapiens, UniProt P09038 P09038:143-288). Put plainly: filter; specificity control, like random RNA; TBSC. How it is done:
as §3, §4

A further data set has as its target lysozyme (egg white) (Gallus gallus, UniProt P00698 P00698:19-147). Put plainly: filter; specificity control, like random RNA; TBSC. The conditions noted are these: tags: 6x crystallized. How it is done: as §3, §4
Data set [9] addresses T1, secretory phospholipase A2 (sPLA2). Put plainly: filter; biphasic, Kd2 300 nM, mole fraction 0.40; TBSC, 37 C. The conditions noted are these: tags: supplied by Eli Lilly. As for the experimental part: as §1, §2
The target is the same in data set [10]. Put plainly: filter; biphasic, Kd2 180 nM, mole fraction 0.45; TBSC, 37 C. The conditions noted are these: tags: supplied by Eli Lilly. How it is done: as §1, §2
For data set [11] the target is unchanged. Put plainly: filter; biphasic, Kd2 130 nM, mole fraction 0.40; TBSC, 37 C. Conditions: tags: supplied by Eli Lilly. How it is done: as §1, §2
Data set [12] has the same target. Put plainly: filter; biphasic, Kd2 52 nM, mole fraction 0.35; TBSC, 37 C. Conditions: tags: supplied by Eli Lilly. How it is done: as §1, §2
The target is the same in data set [13]. Nature of the data set: filter; biphasic, Kd2 360 nM, mole fraction 0.40; TBSC, 37 C. Conditions: tags: supplied by Eli Lilly. As for the experimental part:
as §1, §2

Data set [14] has the same target. Nature of the data set: filter; biphasic, Kd2 310 nM, mole fraction 0.25; TBSC, 37 C. Conditions: tags: supplied by Eli Lilly. As for the experimental part:
as §1, §2

For data set [15] the target is unchanged. Put plainly: filter; like random pool; TBSC, 37 C. The conditions noted are these: tags: supplied by Eli Lilly. How it is done: as §1, §2
For data set [16] the target is unchanged. Put plainly: filter; biphasic, Kd2 530 nM, mole fraction 0.40; TBSC, 37 C. The conditions noted are these: tags: supplied by Eli Lilly. As for the experimental part:
as §1, §2

Data set [17] shares this target. Put plainly: filter; biphasic, Kd2 300 nM, mole fraction 0.55; TBSC, 37 C. Conditions: tags: supplied by Eli Lilly. As for the experimental part:
as §1, §2

The target is the same in data set [18]. Put plainly: filter; biphasic, Kd2 62 nM, mole fraction 0.50; TBSC, 37 C. Conditions: tags: supplied by Eli Lilly. As for the experimental part: as §1, §2
Data set [19] has the same target. Nature of the data set: filter; biphasic, Kd2 740 nM, mole fraction 0.55; TBSC, 37 C. Conditions: tags: supplied by Eli Lilly. As for the experimental part:
as §1, §2

For data set [20] the target is unchanged. Put plainly: filter; biphasic, Kd2 170 nM, mole fraction 0.15; Table III prints SEQ 104, name matches SEQ 105; TBSC, 37 C. Conditions: tags: supplied by Eli Lilly. As for the experimental part:
as §1, §2

Data set [21] shares this target. Nature of the data set: filter; biphasic, Kd2 170 nM, mole fraction 0.65; TBSC, 37 C. The conditions noted are these: tags: supplied by Eli Lilly. As for the experimental part: as §1, §2

Sequence of lysozyme (egg white) (P00698 19-147, one chain of several): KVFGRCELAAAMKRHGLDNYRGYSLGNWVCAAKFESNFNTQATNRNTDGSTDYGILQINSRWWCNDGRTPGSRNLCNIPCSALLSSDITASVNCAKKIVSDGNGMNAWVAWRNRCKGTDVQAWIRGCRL
Sequence of basic fibroblast growth factor (bFGF) (P09038 143-288, one chain of several): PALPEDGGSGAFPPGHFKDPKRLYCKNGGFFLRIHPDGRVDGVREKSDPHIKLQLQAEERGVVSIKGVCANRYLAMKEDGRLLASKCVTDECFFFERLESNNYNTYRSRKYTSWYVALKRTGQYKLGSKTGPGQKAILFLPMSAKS
Sequence of pancreatic phospholipase A2 (bpPLA2) (P00593 23-145, one chain of several): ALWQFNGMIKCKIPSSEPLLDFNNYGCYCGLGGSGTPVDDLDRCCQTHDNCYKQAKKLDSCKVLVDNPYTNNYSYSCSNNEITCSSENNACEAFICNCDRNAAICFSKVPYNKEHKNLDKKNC

B1: NN29 (ssRNA)
RNA: GGGAAAAGCGAAUCAUACACAAGACCGGCCCGGUGUGUAGCCGGAGAUCCGAGACUUGCUGAACGAGGUGCCACGGCUCCGCCAGAGACCAACCGAGAA
modifications: 2'-NH2 all C and U
For B1, the Kd (commonly the free concentration of one partner at which half of the binding sites on the other are occupied at equilibrium, for simple one-to-one binding) in data set [1] stood at 2.5 nM.

B2: NN41 (ssRNA)
RNA: GGGAAAAGCGAAUCAUACACAAGACCGGCCCGGUGUGCAGCCGGAGAUCCGAGACUUGCUGAACAAGGUGCCACGGCUCCGCCAGAGACCAACCGAGAA
modifications: 2'-NH2 all C and U
The molecule B2 yielded a Kd in data set [1] of 1.2 nM.

B3: NN5 (ssRNA)
RNA: GGGAAAAGCGAAUCAUACACAAGACCGGCCCCGCCAAUCAAGGGAGAUCCGAGGAAUUGGAAUGUUUGUGAGUGAGCUCCGCCAGAGACCAACCGAGAA
modifications: 2'-NH2 all C and U
In turn, B3 came in with a Kd in [1] of 4.6 nM.

B4: 71 (ssRNA)
RNA: GGGAGCUCAGAAUAAACGCUCAAUCUCAUGCUCGUCGCACGGCGUAACCUAUUUCGACAUGAGGCCCGGAUCCGGC
For the molecule B4, the Kd in data set [2] is 1.3 nM.

B5: 6t (ssRNA)
RNA: GGGAGCUCAGAAUAAACGCUCAAUGCCUCAUGCCAAUGUGGGAGGGUGGGUGGUUCGACAUGAGGCCCGGAUCCGGC
Molecule B5 displayed a Kd in data set [3] of 28 nM.

B6: 86t (ssRNA)
RNA: GGGAGCUCAGAAUAAACGCUCAACGCCUCAUGCCAAUGCGGGAGGGUGGGUGGUUCGACAUGAGGCCCGGAUCCGGC
In [4], B6 displayed a Kd of 2.8 nM.

B7: 83t (ssRNA)
RNA: GGGAGCUCAGAAUAAACGCUCAACGCCUCAUGCCAACGUGGGAGCGUGGGUGGUUCGACAUGAGGCCCGGAUCCGGC
In [5], B7 displayed a Kd of 10.5 nM.

B8: 11t (ssRNA)
RNA: GGGAGCUCAGAAUAAACGCUCAACUUACGGGUAAAGCCGAGAAAAUGUAUUGCUUCGACAUGAGGCCCGGAUCCGGC
Molecule B8 gave a Kd in [6] of 0.6 nM.

B9: 80 (ssRNA)
RNA: GGGAGCUCAGAAUAAACGCUCAAGCUCUGGGAUGAUGCCCAGUGUCCAGCAUCUUCGACAUGAGGCCCGGAUCCGGC
For B9, the Kd in data set [7] worked out at 29 µM; in data set [8], 240 nM; with lysozyme (egg white) it was 2700 nM; in [9] it was 1.6 nM.

B10: 2 (ssRNA)
RNA: GGGAGCUCAGAAUAAACGCUCAAUCUCAUUGCUCGUCGCACGGCGUAACCUAUUUCGACAUGAGGCCCGGAUCCGGC
With B10, the dissociation constant (Kd) in data set [10] worked out at 1.7 nM; in [7], 20 µM; in data set [8], 230 nM; with lysozyme (egg white), 1700 nM.

B11: 96 (ssRNA)
RNA: GGGAGCUCAGAAUAAACGCUCAAGACCUCUGCUUACAGUUCGGCUGAGACACUUCGACAUGAGGCCCGGAUCCGGC
Molecule B11 returned a Kd in [11] of 0.9 nM.

B12: 79 (ssRNA)
RNA: GGGAGCUCAGAAUAAACGCUCAAGACCUCUGCUUACAGCUCGGCUGAGACACUUCGACAUGAGGCCCGGAUCCGGC
In turn, B12 gave a Kd in data set [12] of 1.7 nM.

B13: 72t.2c (ssRNA)
RNA: GGGAUAAACGCUCAACUUACAGUUCGGCUGAGACGAAGAUCGACCUUCGACAU
Consider B13, for which binding in data set [13] was characterised by a dissociation constant (Kd) of 5 nM.

B14: 9t (ssRNA)
RNA: GGGAGCUCAGAAUAAACGCUCAACACGGGGGUGGGUGGGUGGCCGAGCGCUUGUUCGACAUGAGGCCCGGAUCCGGC
In data set [14], B14 returned a Kd of 39.4 nM.

B15: NN39 (ssRNA)
RNA: GGGAAAAGCGAAUCAUACACAAGACUGGUUGUGCGGACCCAGUGAGUGGGAGGACGUGAGGGUGGCAGCUGGGCUCCGCCAGAGACCAACCGAGAA
modifications: 2'-NH2 all C and U
Take B15: binding in data set [15] was characterised by a dissociation constant (Kd) of 52 nM.

B16: 73t (ssRNA)
RNA: GGGAGCUCAGAAUAAACGCUCAACUUACAGUUCGGCUGAGAGAAGACGCAUACUUCGACAUGAGGCCCGGAUCCGGC
Take B16: the affinity in data set [16], expressed as Kd, was 2.4 nM.

B17: 4 (ssRNA)
RNA: GGGAGCUCAGAAUAAACGCUCAAUGUCUUACGGGUAAAGCCGAGAAAGUUUCCUUCGACAUGAGGCCCGGAUCCGGC
Turning to B17, the Kd in data set [17] is 0.7 nM.

B18: 89 (ssRNA)
RNA: GGGAGCUCAGAAUAAACGCUCAAAGUCUUACGGGUAAAGCCGAGAAAGUUUCCUUCGACAUGAGGCCCGGAUCCGGC
Take B18: in data set [18], the Kd is 2.5 nM.

For GGUCUCAUUGCUCGUCGCACGGCGUAACCUAUUUCGACAUGAG (ssRNA) [2.3], binding in [19] was put at a Kd of 2.6 nM.

In turn, GGGAAGACCUCUGCUUACAGCCCGGCUGAGACACUUCGACAUGAGGCC (ssRNA) [72.c] showed a Kd in [20] of 4.6 nM.

B19: NN18 (ssRNA)
RNA: GGGAAAAGCGAAUCAUACACAAGAGGAUGGCGGCAAGGCGCGAAAGGGAGGAUCGAGGAGGAAUCGCGUCAGGAGCUCCGCCAGAGACCAACCGAGAA
modifications: 2'-NH2 all C and U
B19: binding in data set [15] was characterised by a dissociation constant (Kd) of 71 nM.

B20: 35t (ssRNA)
RNA: GGGAGCUCAGAAUAAACGCUCAAGGCUGGGUCUUUUACAGGUAAAGCUGAGAAUUCGACAUGAGGCCCGGAUCCGGC
The molecule B20 returned a Kd in data set [21] of 2.4 nM.
